Laboratory results published in the supplement of paper PMC10126150.
± gives the standard deviation of the averaged measurements.

tested on: ATP; assay: switch fluorescence ratio, 500 uM ATP over buffer (Cy3 cluster intensity, sum of 5 cycles each) (fold (ratio)); higher = stronger signal-on switching upon ATP binding; sequences stand for … in TCGTCGGCAGCGTCAGATGTGTATAAGAGACAGTTTTTTTTTTTTTTTTTTTTTTTTT…TC; details: aptamer strand: ATP DNA aptamer (quencher-CACCTGGGGGAGTATTGCGGAGGAAGG + anchor), 100 nM annealed; ATP concentration: 500 uM
Summary of the method: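 Per cluster, summed Cy3 intensity from the target cycles was divided by that from the buffer cycles to give the fluorescence ratio, then averaged per switch-domain sequence. Clusters outside 100-1000 RFU were excluded. The Cy3-labelled switching-strand clusters, on a modified Illumina MiSeq flow-cell, were annealed to 100 nM quencher-labelled ATP aptamer and imaged in selection buffer, then after 15 min with 500 uM ATP at 22 °C, for five cycles with NaOH stripping and re-annealing between them.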
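Note: ATP exposure 15 min at 22 °C before imaging.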

Compared with CACATTATGA, CACCAGAGCT is higher in switch fluorescence ratio: 1.04 ± 0.014 for the first, 1.09 ± 0.026 for the second.

Going from CACCAGGGCT to CACCGGCTGG, the switch fluorescence ratio falls from 1.6 ± 0.051 to 0.986 ± 0.086.

CACCTTACTC and CACGACTTCC are within error of each other in switch fluorescence ratio: 2.07 ± 0.11 for the first, 2.27 ± 0.12 for the second.

CACGAGGAGG and CACGAGGTTG are within error of each other in switch fluorescence ratio: 0.9809 ± 0.0055 for the first, 0.992 ± 0.02 for the second.

CACGCAGGGT and CACGCATGTT are within error of each other in switch fluorescence ratio: 1.11 ± 0.12 for the first, 1.09 ± 0.015 for the second.

CACGCGTATG and CACGGAGAGT are within error of each other in switch fluorescence ratio: 1.03 ± 0.011 for the first, 1.14 ± 0.18 for the second.

Compared with CACGGATAGC, CACGGCGTAG is lower in switch fluorescence ratio: 1.07 ± 0.027 for the first, 1.02 ± 0.013 for the second.

CACGGGGGAC and CACGGGGGAT are within error of each other in switch fluorescence ratio: 1.06 ± 0.021 for the first, 1.03 ± 0.011 for the second.

Going from CACGGGGTCC to CACGGGTGTT, the switch fluorescence ratio rises from 1.06 ± 0.069 to 1.32 ± 0.12.

Compared with CACGGTGCGG, CACGTATCTC is higher in switch fluorescence ratio: 1.01 ± 0.015 for the first, 1.2 ± 0.05 for the second.

First: CACGTCCAC
Second: CACGTTATAG
The switch fluorescence ratio of the first is higher: 1.44 ± 0.061 for the first, 1.19 ± 0.026 for the second.

CACGTTGTAT and CACTAACTA are within error of each other in switch fluorescence ratio: 1.32 ± 0.42 for the first, 1.121 ± 0.0035 for the second.

Going from CACTAATGGT to CACTAGCTCG, the switch fluorescence ratio falls from 1.073 ± 0.0072 to 1.02 ± 0.021.

CACTAGGGGA and CACTAGTCTG are within error of each other in switch fluorescence ratio: 1 ± 0.028 for the first, 1.01 ± 0.033 for the second.

First: CACTATAACT
Second: CACTATAGCG
The switch fluorescence ratio of the first is higher: 1.071 ± 0.0068 for the first, 1.042 ± 0.0098 for the second.

CACTCTGTCA and CACTCTTGAT are within error of each other in switch fluorescence ratio: 1.04 ± 0.022 for the first, 1.01 ± 0.019 for the second.

CACTGAAGTT and CACTGGGGCA are within error of each other in switch fluorescence ratio: 1.026 ± 0.00036 for the first, 1.1 ± 0.15 for the second.

Going from CACTGGGTGT to CAGAAACGGT, the switch fluorescence ratio falls from 1.24 ± 0.021 to 1 ± 0.047.

Going from CAGAACCCGC to CAGAAGTCCA, the switch fluorescence ratio falls from 1.1 ± 0.015 to 0.991 ± 0.052.

CAGAATGGTG and CAGAATGTTA are within error of each other in switch fluorescence ratio: 0.978 ± 0.028 for the first, 1 ± 0.038 for the second.

CAGAATTTAG and CAGACCGGTT are the same in switch fluorescence ratio: 0.996 ± 0.024 for the first, 0.996 ± 0.035 for the second.

CAGAGAAAGG and CAGAGAAAGT are within error of each other in switch fluorescence ratio: 0.997 ± 0.014 for the first, 0.973 ± 0.038 for the second.

CAGAGAAGGC and CAGAGACTTT are within error of each other in switch fluorescence ratio: 0.991 ± 0.018 for the first, 0.994 ± 0.012 for the second.

CAGAGAGTTA and CAGAGGGGAG are within error of each other in switch fluorescence ratio: 0.984 ± 0.024 for the first, 1.03 ± 0.027 for the second.

First: CAGAGGGGGT
Second: CAGAGGGTGC
The switch fluorescence ratio of the first is lower: 0.988 ± 0.017 for the first, 1.03 ± 0.017 for the second.

Going from CAGAGGTGGC to CAGAGTGTGA, the switch fluorescence ratio falls from 1.07 ± 0.032 to 1.005 ± 0.0086.

CAGATAGGTG and CAGATATTAC are within error of each other in switch fluorescence ratio: 1.15 ± 0.089 for the first, 1.06 ± 0.035 for the second.

First: CAGATCAGTA
Second: CAGATCCTTA
The switch fluorescence ratio of the first is lower: 0.964 ± 0.015 for the first, 1.051 ± 0.0082 for the second.

CAGATCGGTT and CAGATGGGTA are within error of each other in switch fluorescence ratio: 0.964 ± 0.014 for the first, 0.971 ± 0.025 for the second.

CAGATGTGGC and CAGATGTTTT are within error of each other in switch fluorescence ratio: 0.927 ± 0.037 for the first, 0.987 ± 0.052 for the second.

CAGATTCTGT and CAGATTTAAG are within error of each other in switch fluorescence ratio: 0.973 ± 0.023 for the first, 0.994 ± 0.017 for the second.

First: CAGATTTAGC
Second: CAGCACGCGC
The switch fluorescence ratio of the first is lower: 0.9728 ± 0.0068 for the first, 1.06 ± 0.038 for the second.

CAGCAGAGGT and CAGCAGATTA are within error of each other in switch fluorescence ratio: 1.02 ± 0.013 for the first, 1.04 ± 0.018 for the second.

First: CAGCAGGGGT
Second: CAGCCCAGGT
The switch fluorescence ratio of the first is lower: 1.24 ± 0.15 for the first, 4.12 ± 2.7 for the second.

Going from CAGCGTCCCT to CAGCGTCGT, the switch fluorescence ratio falls from 1.07 ± 0.014 to 1.02 ± 0.025.

Compared with CAGCGTTCAC, CAGCTCATGC is higher in switch fluorescence ratio: 1.054 ± 0.0092 for the first, 1.0792 ± 0.00059 for the second.

CAGCTCCCGG and CAGCTTAGGG are within error of each other in switch fluorescence ratio: 1.07 ± 0.039 for the first, 1.01 ± 0.036 for the second.

Compared with CAGCTTGGAT, CAGGAAAACG is higher in switch fluorescence ratio: 0.977 ± 0.013 for the first, 1.03 ± 0.018 for the second.

CAGGAAATGG and CAGGAACTTT are within error of each other in switch fluorescence ratio: 0.999 ± 0.017 for the first, 0.995 ± 0.0012 for the second.

First: CAGGAAGCGG
Second: CAGGACCCGG
The switch fluorescence ratio of the first is lower: 1.025 ± 0.0027 for the first, 1.071 ± 0.0084 for the second.

Going from CAGGAGGAAT to CAGGAGTGAG, the switch fluorescence ratio falls from 1.242 ± 0.0098 to 1.0068 ± 0.00044.

CAGGATTGGG and CAGGCGCAGG are within error of each other in switch fluorescence ratio: 0.973 ± 0.043 for the first, 1.06 ± 0.051 for the second.

CAGGCGCTCT and CAGGCGTCGT are within error of each other in switch fluorescence ratio: 1.04 ± 0.054 for the first, 1.035 ± 0.0023 for the second.

CAGGCTAAAG and CAGGCTAGGC are within error of each other in switch fluorescence ratio: 0.989 ± 0.032 for the first, 1.02 ± 0.056 for the second.

CAGGCTGGTC and CAGGGAGGAC are within error of each other in switch fluorescence ratio: 0.992 ± 0.053 for the first, 1.01 ± 0.013 for the second.

CAGGGATTAG and CAGGGATTGA are within error of each other in switch fluorescence ratio: 1.01 ± 0.044 for the first, 0.998 ± 0.0049 for the second.

CAGGGATTTA and CAGGGCCCTG are within error of each other in switch fluorescence ratio: 0.978 ± 0.024 for the first, 0.995 ± 0.056 for the second.

CAGGGGAAAC and CAGGGGCGAC are the same in switch fluorescence ratio: 1.02 ± 0.077 for the first, 1.02 ± 0.049 for the second.

CAGGGGCTTA and CAGGGGCTTT are within error of each other in switch fluorescence ratio: 1 ± 0.038 for the first, 1.04 ± 0.0067 for the second.

CAGGGGGATA and CAGGGGGATG are within error of each other in switch fluorescence ratio: 1.3 ± 0.43 for the first, 1.01 ± 0.032 for the second.
